# Measured values reported in patent publication US20140087995A1 (published 2014).
# Numbered stars: 1 amine (or outer) side, 2 acyl side, 3 side chain; on linkers, the order of the positions; unused ones are H or OH. Bridge positions count the residues as written; N and C are the ends. Side chains are listed from the residue outwards. Ends that are not written are not given here. * marks the point of attachment. C20 diacid = O=C(O)CCCCCCCCCCCCCCCCCCC(=O)*; γGlu = O=C(O)[C@H](CCC(=O)[*:2])N[*:1]
# T1: human calcitonin receptor (human, UniProt P30988 25-474)
# T1 construct: whole, on cells; Assay used cell membranes, not intact cells; also called hCTR; hCT
# T1 sequence (looked up): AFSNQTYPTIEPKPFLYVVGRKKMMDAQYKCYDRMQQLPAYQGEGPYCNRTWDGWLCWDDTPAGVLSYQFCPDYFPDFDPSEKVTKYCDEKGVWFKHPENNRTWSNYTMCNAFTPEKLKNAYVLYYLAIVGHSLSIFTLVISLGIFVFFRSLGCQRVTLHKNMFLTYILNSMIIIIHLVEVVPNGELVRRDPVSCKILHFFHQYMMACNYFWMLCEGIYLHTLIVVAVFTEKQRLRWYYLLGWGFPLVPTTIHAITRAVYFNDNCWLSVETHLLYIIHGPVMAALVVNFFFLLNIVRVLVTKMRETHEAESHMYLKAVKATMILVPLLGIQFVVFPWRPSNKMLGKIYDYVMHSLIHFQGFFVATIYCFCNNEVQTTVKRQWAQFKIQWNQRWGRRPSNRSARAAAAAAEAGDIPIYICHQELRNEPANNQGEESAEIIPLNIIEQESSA
# T2: human amylin receptor (amylin 3(a) receptor: human calcitonin receptor with RAMP-3) (human, UniProt P30988 25-474; O60896 24-148)
# T2 construct: whole, on cells; Assay used cell membranes of the Amylin 3(a)/CRE-luc BHK cells, not intact cells; also called hAmylin-R; hAmylinR
# T2 sequence (looked up) 1: T1 sequence (looked up)
# T2 sequence (looked up) 2: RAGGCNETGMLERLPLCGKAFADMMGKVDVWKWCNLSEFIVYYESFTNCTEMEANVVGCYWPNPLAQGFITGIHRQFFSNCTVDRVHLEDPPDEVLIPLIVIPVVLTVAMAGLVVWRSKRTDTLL
# B1: N^ε1-[(4S)-4-carboxy-4-[[(4S)-4-carboxy-4-(19-carboxynonadecanoylamino)butanoyl]amino]butanoyl]-[Arg17,Pro21,Pro27,His34]-h-amylin (peptide)
# peptide: K([γGlu-γGlu-C20 diacid])CNTATCATQRLANFLRHSSPNFGAIPSSTNVGHNTY-NH2
# modifications: disulfide 2-7; N-terminus assumed
# SMILES: CC[C@H](C)[C@H](NC(=O)[C@H](C)NC(=O)CNC(=O)[C@H](Cc1ccccc1)NC(=O)[C@H](CC(N)=O)NC(=O)[C@@H]1CCCN1C(=O)[C@H](CO)NC(=O)[C@H](CO)NC(=O)[C@H](Cc1c[nH]cn1)NC(=O)[C@H](CCCNC(=N)N)NC(=O)[C@H](CC(C)C)NC(=O)[C@H](Cc1ccccc1)NC(=O)[C@H](CC(N)=O)NC(=O)[C@H](C)NC(=O)[C@H](CC(C)C)NC(=O)[C@H](CCCNC(=N)N)NC(=O)[C@H](CCC(N)=O)NC(=O)[C@@H](NC(=O)[C@H](C)NC(=O)[C@@H]1CSSC[C@H](NC(=O)[C@@H](N)CCCCNC(=O)CC[C@H](NC(=O)CC[C@H](NC(=O)CCCCCCCCCCCCCCCCCCC(=O)O)C(=O)O)C(=O)O)C(=O)N[C@@H](CC(N)=O)C(=O)N[C@@H]([C@@H](C)O)C(=O)N[C@@H](C)C(=O)N[C@@H]([C@@H](C)O)C(=O)N1)[C@@H](C)O)C(=O)N1CCC[C@H]1C(=O)N[C@@H](CO)C(=O)N[C@@H](CO)C(=O)N[C@H](C(=O)N[C@@H](CC(N)=O)C(=O)N[C@H](C(=O)NCC(=O)N[C@@H](Cc1c[nH]cn1)C(=O)N[C@@H](CC(N)=O)C(=O)N[C@H](C(=O)N[C@@H](Cc1ccc(O)cc1)C(N)=O)[C@@H](C)O)C(C)C)[C@@H](C)O
# notes: also called compound 86
# B2: N^ε1-[(4S)-4-carboxy-4-[[(4S)-4-carboxy-4-(19-carboxynonadecanoylamino)butanoyl]amino]butanoyl]-[Arg17,Pro21,Pro27,Pro31,Pro34,Arg35]-h-amylin (peptide)
# peptide: K([γGlu-γGlu-C20 diacid])CNTATCATQRLANFLRHSSPNFGAIPSSTPVGPRTY-NH2
# modifications: disulfide 2-7; N-terminus assumed
# SMILES: CC[C@H](C)[C@H](NC(=O)[C@H](C)NC(=O)CNC(=O)[C@H](Cc1ccccc1)NC(=O)[C@H](CC(N)=O)NC(=O)[C@@H]1CCCN1C(=O)[C@H](CO)NC(=O)[C@H](CO)NC(=O)[C@H](Cc1c[nH]cn1)NC(=O)[C@H](CCCNC(=N)N)NC(=O)[C@H](CC(C)C)NC(=O)[C@H](Cc1ccccc1)NC(=O)[C@H](CC(N)=O)NC(=O)[C@H](C)NC(=O)[C@H](CC(C)C)NC(=O)[C@H](CCCNC(=N)N)NC(=O)[C@H](CCC(N)=O)NC(=O)[C@@H](NC(=O)[C@H](C)NC(=O)[C@@H]1CSSC[C@H](NC(=O)[C@@H](N)CCCCNC(=O)CC[C@H](NC(=O)CC[C@H](NC(=O)CCCCCCCCCCCCCCCCCCC(=O)O)C(=O)O)C(=O)O)C(=O)N[C@@H](CC(N)=O)C(=O)N[C@@H]([C@@H](C)O)C(=O)N[C@@H](C)C(=O)N[C@@H]([C@@H](C)O)C(=O)N1)[C@@H](C)O)C(=O)N1CCC[C@H]1C(=O)N[C@@H](CO)C(=O)N[C@@H](CO)C(=O)N[C@H](C(=O)N1CCC[C@H]1C(=O)N[C@H](C(=O)NCC(=O)N1CCC[C@H]1C(=O)N[C@@H](CCCNC(=N)N)C(=O)N[C@H](C(=O)N[C@@H](Cc1ccc(O)cc1)C(N)=O)[C@@H](C)O)C(C)C)[C@@H](C)O
# How the values were obtained:
# [1] = target: T1, human calcitonin receptor; experiment: ratio IC50 hCTR / IC50 hAmylin-R (reference: human amylin receptor), SPA competition assays
# Outline: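 IC₅₀ values were derived by one-site competition analysis of SPA counts. Cell membranes (35 ng/μL) with SPA beads were incubated with test compounds for 120 min at 25° C in Hepes buffer, pH 7.4, containing CaCl2, MgCl₂, OA and Tween20.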
# [2] = target: T1, human calcitonin receptor; experiment: SPA competition with 125I-calcitonin on membranes of BHK cells with human calcitonin receptor (Assay VII)
# Outline: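 BHK hCTR membranes 35 ng/μL + SPA beads 0.05 mg/well; buffer 50 mM Hepes pH 7.4, 1 mM CaCl2, 5 mM MgCl₂, 0.1% OA, 0.02% Tween20. 120 min, 25° C., shaking. Scintillation count; IC50 by one-site binding competition.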
# [3] = target: T2, human amylin receptor (amylin 3(a) …); experiment: SPA competition with 125I-rat amylin on membranes of BHK cells with human calcitonin receptor and RAMP-3 (Assay V)
# Outline: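 Cell membranes were prepared by homogenisation in Na-HEPES/EDTA buffer, pH 7.4, and stored at −80° C. They were then coupled to SPA beads at 35 ng/μL final and exposed to compounds in assay buffer containing CaCl2, MgCl₂, OA and Tween20. After 120 min at 25° C, plates were counted and IC₅₀ derived.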
Binder,Ratio hCT/hAmylin binding [1],IC50 [2],IC50 [3]
B1,159,133 nM,0.833 nM
B2,48.6,42.8 nM,0.88 nM
